Target: the molecule itself
Assay: crystal structure; vapor diffusion, 50 mM Tris pH 7.5, 15% MPD, 25°C; four monomers (A, B, D, E) in the asymmetric unit; refined to 1.7 Å

B1: Human β-glucuronidase (enzyme, UniProt P08236 23-651, looked up)
chain: LQGGMLYPQESPSRECKELDGLWSFRADFSDNRRRGFEEQWYRRPLWESGPTVDMPVPSSFNDISQDWRLRHFVGWVWYEREVILPERWTQDLRTRVVLRIGSAHSYAIVWVNGVDTLEHEGGYLPFEADISNLVQVGPLPSRLRITIAINNTLTPTTLPPGTIQYLTDTSKYPKGYFVQNTYFDFFNYAGLQRSVLLYTTPTTYIDDITVTTSVEQDSGLVNYQISVKGSNLFKLEVRLLDAENKVVANGTGTQGQLKVPGVSLWWPYLMHERPAYLYSLEVQLTAQTSLGPVSDFYTLPVGIRTVAVTKSQFLINGKPFYFHGVNKHEDADIRGKGFDWPLLVKDFNLLRWLGANAFRTSHYPYAEEVMQMCDRYGIVVIDECPGVGLALPQFFNNVSLHHHMQVMEEVVRRDKNHPAVVMWSVANEPASHLESAGYYLKMVIAHTKSLDPSRPVTFVSNSNYAADKGAPYVDVICLNSYYSWYHDYGHLELIQLQLATQFENWYKKYQKPIIQSEYGAETIAGFHQDPPLMFTEEYQKSLLEQYHLGLDQKRRKYVVGELIWNFADFMTEQSPTRVLGNKKGIFTRQRQPKSAAFLLRERYWKIANETRYPHSVAKSQCLENSLFT
modifications: N-linked oligosaccharide at Asn173 (six mannose, one β-D-mannose, three N-acetyl glucosamine); single N-acetyl-glucopyranose at Asn272 (as seen in the electron density)
notes: β-glucuronidase, human, UniProt P08236; secreted enzyme; the final model holds residues 22 to 631 of each subunit; Homotetramer (subunits A, B, D, E) in the crystal; also called GUS; human GUS; source: CHO-K1, stably transfected, secreted
stoichiometry N: 4
